Reference: PMC11908141 (bioRxiv, 2025)

Molecular target: the molecule itself
Assay: cryo-EM structure

B1: enolase, native, Francisella novicida (enzyme)
chain: MSSQIKQVFARQILDSRGNPTVEVDVVLESGAFGRAAVPSGASTGIREALELRDGNKALFLGKSVYKAVENVNTKIAQAVKGLDALDQRLIDKTMIELDGSENKKNLGANAILGVSLATARAAASHLRKPFYRYLMDVKEYLMPVPMMNVINGGSHADNNVDMQEFMIVPAGFDTFSEALRCGTEVFHTLKKVLIADGYSVAGVGDEGGYAPDLPSNEAAIEAILKAVKEAGYEPGKHVFIALDPASSEFYKDGKYELKSENKSLTSEEMIDYYAAWVEKYPIVSIEDGLAEEDWAGWKLLTEKLGNKVQLVGDDLFVTNPSILAKGIEKGIANSILIKLNQIGTLTETFEAMAMAGQAGYTCVVSHRSGETSDTIIADLAVATCSGQIKTGSLSRSDRIAKYNQLLRIEEELGENAIYPGIKAFVFNSDEEVEEDVQEIIVEDSEAEKVVVQVEE
- stoichiometry N: 2
